Experiment [1] addresses recombinant TIMP-3 (human or mouse; Table 2 does not say which). Briefly: binding ELISA, Assay 1. In general terms: An ELISA detects its analyte on a solid surface through an enzyme-linked reagent.
Experiment [2] shares this target. Briefly: binding ELISA, Assay 3.
Experiment [3] has the same target. Briefly: AlphaScreen, biotinylated TIMP-3, Assay 2.
Experiment [4] shares this target. Description: AlphaScreen, biotinylated TIMP-3, Assay 1. In general terms: Alpha assays give light when donor and acceptor beads are brought close together.
For experiment [5] the target is unchanged. Description: binding ELISA, Assay 2.
For experiment [6], the target named is MMP-13 (UniProt P45452). Description: cell-based or functional assay.
Experiment [7] addresses recombinant human TIMP-3 (human) (UniProt P35625). Description: cell-based or functional assay.
Experiment [8] has the same target. Briefly: direct ELISA, coated huTIMP-3.
The target in experiment [9] is recombinant mouse TIMP-3 (mouse) (UniProt P39876). Description: direct ELISA, coated muTIMP-3.
In experiment [10] the target is recombinant human TIMP-3 (human) (UniProt P35625). Description: indirect ELISA, huTIMP-3 captured by anti-TIMP-3 clone 277128.

The term EC50 denotes the concentration needed to bring the measured effect to its halfway point.

Several values for one entry are separate records, joined by “and”; a condition that tells them apart may be missing. Identical values can stand only once.

LRP-1 Cluster II (C II) (peptide), sequence (chain): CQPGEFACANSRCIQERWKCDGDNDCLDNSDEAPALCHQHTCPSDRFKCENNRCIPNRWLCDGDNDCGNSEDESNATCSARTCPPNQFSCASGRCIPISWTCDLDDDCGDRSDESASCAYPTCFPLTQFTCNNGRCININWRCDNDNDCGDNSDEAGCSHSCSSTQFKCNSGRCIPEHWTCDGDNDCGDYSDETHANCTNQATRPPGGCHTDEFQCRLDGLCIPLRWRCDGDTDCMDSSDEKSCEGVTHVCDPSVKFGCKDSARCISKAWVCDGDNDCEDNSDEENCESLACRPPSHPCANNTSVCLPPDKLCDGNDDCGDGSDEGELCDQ
recombinant TIMP-3 (human or mouse; Table 2 does not say which), sequence (P35625 24-211): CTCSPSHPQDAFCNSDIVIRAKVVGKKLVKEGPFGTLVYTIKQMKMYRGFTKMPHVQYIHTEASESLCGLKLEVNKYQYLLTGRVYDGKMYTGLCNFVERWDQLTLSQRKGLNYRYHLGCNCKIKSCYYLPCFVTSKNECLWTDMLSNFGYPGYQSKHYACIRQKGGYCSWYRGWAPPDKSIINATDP
recombinant human TIMP-3 (human), sequence (P35625 24-211 limits assumed): as the sequence (P35625 24-211) above
recombinant mouse TIMP-3 (mouse), sequence (P39876 24-211 limits assumed): as the sequence (P35625 24-211) above, with T51S, D87E, Q103H, I183S counted along it
LRP-1 peptide LA13-15, sequence (chain): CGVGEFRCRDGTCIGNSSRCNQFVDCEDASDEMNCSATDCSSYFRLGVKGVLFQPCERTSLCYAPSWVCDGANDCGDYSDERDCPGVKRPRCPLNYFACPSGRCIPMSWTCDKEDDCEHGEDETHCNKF

Consider LRP-1 Cluster II (C II) (peptide), for which the figures for the EC50 in experiment [1] and in [2] were 45.5 nM and 32.5 nM, respectively. Besides, in experiment [3], the total signal (cps) worked out at 100000 cps.

Take LRP-1 peptide LA3: the total signal (cps) in experiment [4] turned out to be 2200 cps; in [3], 2000 cps.

LRP-1 peptide LA4-5: the EC50 in experiment [5] worked out at 2000 nM. In addition, the total signal (cps) worked out at 2200 cps in experiment [4] and 2000 cps in experiment [3].

Take LRP-1 peptide LA5: the EC50 in experiment [5] was determined as 1080 nM. Besides, the total signal (cps) was 2200 cps in [4] and 2000 cps in experiment [3].

For the substance LRP-1 peptide LA8, the concentration giving a half-maximal response (EC50) in [2] turned out to be 396 nM. Moreover, the Direct Inhibition of MMP13 (% decrease), 1000 nM in experiment [6] came to 49%. Further, in experiment [7], the % of the inhibitory activity of TIMP-3 + peptide compared to TIMP-3 alone, 16 nM was found to be 101%; the % of the inhibitory activity of TIMP-3 + peptide compared to TIMP-3 alone, 80 nM was determined as 71%; the % of the inhibitory activity of TIMP-3 + peptide compared to TIMP-3 alone, 400 nM was 74%; the % of the inhibitory activity of TIMP-3 + peptide compared to TIMP-3 alone, 2000 nM stood at 107%. In addition, in experiment [8], the EC50 was found to be 292 nM. Moreover, in experiment [9], the EC50 came out at 255 nM. The total signal (cps) in experiment [3] turned out to be 2000 cps. Besides, the 50% effective concentration (EC50) in experiment [10] was 198 nM.

As to LRP-1 peptide LA8-9, the EC50 in [2] came out at 249 nM; in [8] it was 181 nM; in [9], 173 nM; in [10], 113 nM. The Direct Inhibition of MMP13 (% decrease), 1000 nM in experiment [6] came out at 23%. Further, the % of the inhibitory activity of TIMP-3 + peptide compared to TIMP-3 alone, 16 nM in experiment [7] turned out to be 95%. Besides, the % of the inhibitory activity of TIMP-3 + peptide compared to TIMP-3 alone, 80 nM in [7] stood at 91%. Moreover, the % of the inhibitory activity of TIMP-3 + peptide compared to TIMP-3 alone, 400 nM in experiment [7] worked out at 91%. Also, in experiment [7], the % of the inhibitory activity of TIMP-3 + peptide compared to TIMP-3 alone, 2000 nM came out at 97%. Moreover, the total signal (cps) in [3] was 6000 cps.

On to LRP-1 peptide LA9, for which the half-maximal effective concentration (EC50) in experiment [2] worked out at 1500 nM. Further, the Direct Inhibition of MMP13 (% decrease), 1000 nM in experiment [6] came to 41%. Also, in experiment [7], the % of the inhibitory activity of TIMP-3 + peptide compared to TIMP-3 alone, 16 nM was 104%; the % of the inhibitory activity of TIMP-3 + peptide compared to TIMP-3 alone, 80 nM worked out at 104%; the % of the inhibitory activity of TIMP-3 + peptide compared to TIMP-3 alone, 400 nM was determined as 105%; the % of the inhibitory activity of TIMP-3 + peptide compared to TIMP-3 alone, 2000 nM came to 107%. For the same substance, in [3], the total signal (cps) turned out to be 2000 cps.

Turning to LRP-1 peptide LA9-10, in experiment [2], the concentration for a half-maximal effect (EC50) turned out to be 3000 nM. For the same substance, in experiment [6], the Direct Inhibition of MMP13 (% decrease), 1000 nM amounted to 34%. Moreover, in experiment [7], the % of the inhibitory activity of TIMP-3 + peptide compared to TIMP-3 alone, 16 nM was found to be 105%; the % of the inhibitory activity of TIMP-3 + peptide compared to TIMP-3 alone, 80 nM was found to be 107%; the % of the inhibitory activity of TIMP-3 + peptide compared to TIMP-3 alone, 400 nM was 105%; the % of the inhibitory activity of TIMP-3 + peptide compared to TIMP-3 alone, 2000 nM stood at 107%. Besides, the total signal (cps) in [3] was 2000 cps.

In the case of LRP-1 peptide LA10, the Direct Inhibition of MMP13 (% decrease), 1000 nM in [6] was found to be 49%. Also, the total signal (cps) in experiment [3] stood at 3000 cps.

In the case of LRP-1 peptide LA11-13, the 50% effective concentration (EC50) in experiment [1] is 5000 nM. In [6], the Direct Inhibition of MMP13 (% decrease), 1000 nM is -2%. The total signal (cps) in [4] was found to be 1200 cps.

Regarding LRP-1 peptide LA13-15, the total signal (cps) in [4] is 1200 cps.

For LRP-1 peptide LA16, in [4], the total signal (cps) came to 2200 cps.

Consider LRP-1 peptide LA18, for which the total signal (cps) in [4] is 2200 cps.

For the substance LRP-1 peptide LA18-20, the EC50 in experiment [1] was 300 nM. Moreover, the total signal (cps) in [4] amounted to 3000 cps.

Take LRP-1 peptide LA19: the total signal (cps) in [4] is 2200 cps.

Turning to LRP-1 peptide LA21-23, the concentration giving a half-maximal response (EC50) in experiment [1] was 243 nM. Further, the total signal (cps) in experiment [4] is 3000 cps.

Turning to LRP-1 peptide LA21-31, the half-maximal effective concentration (EC50) in experiment [1] amounted to 92 nM. Also, in experiment [6], the Direct Inhibition of MMP13 (% decrease), 1000 nM amounted to 29%. Also, in experiment [4], the total signal (cps) came out at 30000 cps.

For the substance LRP-1 peptide LA23, the total signal (cps) in experiment [4] was 2200 cps.

In the case of LRP-1 peptide LA26-28, in experiment [1], the 50% effective concentration (EC50) is 268 nM. For the same substance, the figures for the total signal (cps) in [4] and in experiment [3] were 6500 cps and 9000 cps, respectively.

As to LRP-1 peptide LA27, in experiment [4], the total signal (cps) was 2200 cps.

As for LRP-1 peptide LA29-31, the 50% effective concentration (EC50) in experiment [1] was 1000 nM and 300 nM. For the same substance, the Direct Inhibition of MMP13 (% decrease), 1000 nM in [6] was determined as 5%. Besides, in [7], the % of the inhibitory activity of TIMP-3 + peptide compared to TIMP-3 alone, 16 nM came out at 96%; the % of the inhibitory activity of TIMP-3 + peptide compared to TIMP-3 alone, 80 nM stood at 99%; the % of the inhibitory activity of TIMP-3 + peptide compared to TIMP-3 alone, 400 nM was found to be 97%; the % of the inhibitory activity of TIMP-3 + peptide compared to TIMP-3 alone, 2000 nM amounted to 96%. Further, the total signal (cps) in experiment [4] came out at 1200 cps.

These data come from patent US20120231013A1.
